We go through seven molecules from patent US12077763B2, “RNA-based control of powdery mildew” (Greenlight Biosciences, Inc., priority 2021, dated 2024).

To fix the notation:
B1: GS1816: dsRNA trigger SEQ ID NO 174; gene target Plasma membrane ATPase (nucleic acid)
DNA: CAACCACTGAGACTTGTTCAATACATGATACACAATAGCAATCACTATCGTGACAGCAATAGAATAGCCCCAGACAACAATAATAGTGACAATGGAGGTTCTTCCGTCAGTAGATAAAAGGGAGTTTAATGTGGCAGGATCTGAAGGCTCACCAGCACCGCCAGTTAACCAACCAAAGAGACAGAAGAGAGTTGCAAGTACATCAACACCGAATATAGCAGCAACGAGTGCAAATGCAGGATAAGTCTCATCTCCTCTGGTGACAAAGATGAGCCAGTTTTCGGTGAGAGAAATTTGAAGGAATAACATTCCCTGGATAGATCCAAAGTTATCAATCATGCCACCATTAGGTAAGAAAAGCGAGCCACGTAATACCCATGTTCCAAGAGCAAGCAATATGCCAAGAACAACAGAGATAATCCAGATTTTAGGTAATTGCCACTCAACAGGTCGAATCTCAAAGTGAGCGTTGTCGTATGCAACTGCAATTGTGGCTAAATCGGCAAAAAGTGCAAGGAAGACAATTAAATCAACCCGGACAGTTTCGTTAATAATGATCATAGAGGTTACAAGATAGATTTCTAAGTGTAAACATAA
B2: GS3921 (nucleic acid)
sense: UUCGCGGUGUCUUCCUUUCCAGAGCCUUUAGUCUUUGAAGGAUUUUCUUCUUCAUCCCCAUCUUCACCCUCCGCUUCUGCAUUGACUUCGUCGGCCUUUUUUGCUUUUUUUUCUUCCCCAGAUUUGCCUUUCGUUGUUAGAGCUCCUAGGCCACUAGCGAGAGAAUUUGAACCAUUACCACCGCCAACAAGAACUCCUGCUUUACCUCCUAUGGUCACCUCUUGAAUACUCUGACUUUCAUUUUCCGCAGCAUUGGCUUGCUUUUUGGAAGAUGAGCUAGAGUCAUGUGAUUUUUCUGAAUUCGAUGCCUUAUUUUUCUGAUCUUUU
antisense: AAAAGAUCAGAAAAAUAAGGCAUCGAAUUCAGAAAAAUCACAUGACUCUAGCUCAUCUUCCAAAAAGCAAGCCAAUGCUGCGGAAAAUGAAAGUCAGAGUAUUCAAGAGGUGACCAUAGGAGGUAAAGCAGGAGUUCUUGUUGGCGGUGGUAAUGGUUCAAAUUCUCUCGCUAGUGGCCUAGGAGCUCUAACAACGAAAGGCAAAUCUGGGGAAGAAAAAAAAGCAAAAAAGGCCGACGAAGUCAAUGCAGAAGCGGAGGGUGAAGAUGGGGAUGAAGAAGAAAAUCCUUCAAAGACUAAAGGCUCUGGAAAGGAAGACACCGCGAA
B3: GS3928 (nucleic acid)
sense: UUGAAGUGGUUAAAAAACAUGUUGAGGAAACAGAAUGGGAAGAAGAACCUUCCAAGAAUGGAAGACUUGAUAUUGAUAUAAUAACCGCGGAAGCAAUGACACUUGCUCAUCAAAUUGCAAGUGGUGAGAAGACUAAAUAUGAUCUCAUCGAUGAAGGUUGGAAUAAAAAUUCAUUCAAGGAUCGCGAUGGCCUUCCUGAUUGGUUUCUGGAUGAUGAGAGUAAACAUGAUAAACCUCAUAGACCUAUCAGUGCUGCCGCUGCAAAUGCUAUAAAAGAAAAGCUGCGAGCCCUGAAUGCUCGACCAAUCAAAAAAGUACGUGAGGCUAAGAGUCGGAAAAAAUUCAAAGCUGCCCAACGACUUGAAAAACUCCGAAAAAAAU
antisense: AUUUUUUUCGGAGUUUUUCAAGUCGUUGGGCAGCUUUGAAUUUUUUCCGACUCUUAGCCUCACGUACUUUUUUGAUUGGUCGAGCAUUCAGGGCUCGCAGCUUUUCUUUUAUAGCAUUUGCAGCGGCAGCACUGAUAGGUCUAUGAGGUUUAUCAUGUUUACUCUCAUCAUCCAGAAACCAAUCAGGAAGGCCAUCGCGAUCCUUGAAUGAAUUUUUAUUCCAACCUUCAUCGAUGAGAUCAUAUUUAGUCUUCUCACCACUUGCAAUUUGAUGAGCAAGUGUCAUUGCUUCCGCGGUUAUUAUAUCAAUAUCAAGUCUUCCAUUCUUGGAAGGUUCUUCUUCCCAUUCUGUUUCCUCAACAUGUUUUUUAACCACUUCAA
B4: GS3925 (nucleic acid)
sense: UUUGAAAAACACACAACCCCAGAAGAAUACGAUAGCAUAUCAUUGGCCAAGCACCCUCAGUUGCAUGUUGAGGAUGAUUCAUGGCAUAGAGCAACUGGUACUUGUAAGUGUAAUAACUGUUAAUGAAGUAUAUAAUCCCAAAAAAUAGAACCAUAUAACCAGCCGGUAGAAUUGAGUAUACAAUACACAAAAUGUAUACAAGGAUUGCAGAGGGUAGAUAAAACCCGUAUUUGAAGACAGGAGGCUGUGUAAGCUCCCAGCGAUCCCUAGGGCUUUUUGAAUACAUACGCAUAAUUGGAUAUAGAGACACACUGCCAAACUCUAAGAGCCUUAAUGGUAUGAAACCAA
antisense: UUGGUUUCAUACCAUUAAGGCUCUUAGAGUUUGGCAGUGUGUCUCUAUAUCCAAUUAUGCGUAUGUAUUCAAAAAGCCCUAGGGAUCGCUGGGAGCUUACACAGCCUCCUGUCUUCAAAUACGGGUUUUAUCUACCCUCUGCAAUCCUUGUAUACAUUUUGUGUAUUGUAUACUCAAUUCUACCGGCUGGUUAUAUGGUUCUAUUUUUUGGGAUUAUAUACUUCAUUAACAGUUAUUACACUUACAAGUACCAGUUGCUCUAUGCCAUGAAUCAUCCUCAACAUGCAACUGAGGGUGCUUGGCCAAUGAUAUGCUAUCGUAUUCUUCUGGGGUUGUGUGUUUUUCAAA
B5: GS3927 (nucleic acid)
sense: CUGAAUCAGAUGAUGGGGGUAAUGAACGUAUGAUAAAUAGUAAGAAACCGCGAAGUACAUGCUCGAAGACCCUAAGGGAAAAAGAUUUGAAAGAUGAUAAAGAAAAGUCCAGAUCUGAUGCUGUAGCUAAAAGAAAUGGUCGUACAGAGCGGAGAAGAACUGAAGAUCAAGAAACACAGAAGGAAUUGUCAAUUGGUACUAAAAAUACAAUGUGCAAUAGCACAGACUCUUCUAAAGUCUCUACAACGAUUGAAUCUCUUGAGUCUCCGACAUUAUCAAAUGGUAGAGUUUCAGACAAUUCAUCUAACAACCAAUUUCCAAUACCUUUAAAAAAAAGCUACCGUAAUUCAAAUUCUAGGAAAGGGAAAUUAGCCAAAAAUAAUUUCACAAGGGAAU
antisense: AUUCCCUUGUGAAAUUAUUUUUGGCUAAUUUCCCUUUCCUAGAAUUUGAAUUACGGUAGCUUUUUUUUAAAGGUAUUGGAAAUUGGUUGUUAGAUGAAUUGUCUGAAACUCUACCAUUUGAUAAUGUCGGAGACUCAAGAGAUUCAAUCGUUGUAGAGACUUUAGAAGAGUCUGUGCUAUUGCACAUUGUAUUUUUAGUACCAAUUGACAAUUCCUUCUGUGUUUCUUGAUCUUCAGUUCUUCUCCGCUCUGUACGACCAUUUCUUUUAGCUACAGCAUCAGAUCUGGACUUUUCUUUAUCAUCUUUCAAAUCUUUUUCCCUUAGGGUCUUCGAGCAUGUACUUCGCGGUUUCUUACUAUUUAUCAUACGUUCAUUACCCCCAUCAUCUGAUUCAG
B6: GS3922 (nucleic acid)
sense: CCCGAAUGAAUGCUAUCAACAUGGGAUAGUAGUUCACGUUCACUCCGAAAUUUUAUAUUACAAAACAUACACUCUGCAUGUUCUUUUCGAAUAUGAGCCUGUAACUUUGAAUAACUUGUGAAGCCUAGAUUUAAUGGCGUACCAUCUGAAUUAAAAGAUCCUGUCAAGCAACAUUCAUUACAGAAAUAUCGAGCACUGCCAUGAGCUCGCUCUUGGUGUCGACGAAGGCUGGCGGAACUAUCGAAACCUGAGUUGCAACUUUCGCCAGUGACAGGGUCAACAUGGACACAGGGAUACGGCAUAAGCUGAAGAUGUUCAGAGCGAAUAUGACGCUGGAGAGUUUGAUGUUUUCGGAAAUUUUGGCUACAGGGUGGGUAAUUUGUACAUUUGAAU
antisense: AUUCAAAUGUACAAAUUACCCACCCUGUAGCCAAAAUUUCCGAAAACAUCAAACUCUCCAGCGUCAUAUUCGCUCUGAACAUCUUCAGCUUAUGCCGUAUCCCUGUGUCCAUGUUGACCCUGUCACUGGCGAAAGUUGCAACUCAGGUUUCGAUAGUUCCGCCAGCCUUCGUCGACACCAAGAGCGAGCUCAUGGCAGUGCUCGAUAUUUCUGUAAUGAAUGUUGCUUGACAGGAUCUUUUAAUUCAGAUGGUACGCCAUUAAAUCUAGGCUUCACAAGUUAUUCAAAGUUACAGGCUCAUAUUCGAAAAGAACAUGCAGAGUGUAUGUUUUGUAAUAUAAAAUUUCGGAGUGAACGUGAACUACUAUCCCAUGUUGAUAGCAUUCAUUCGGG
B7: GS3929 (nucleic acid)
sense: AUUGUUGAUAAGUUCACUGGAAAUCUCCGUUAUAGGAUCUAUUCCUUCAUUUUGUUUCCGGAGUUUUUCUUCUUGUCGAGCACUCAUUUUGGUAGAGAAUGCCCAACAUGAAAGGCCCAAUUCGCGACAUACUAUGCACACAUCUAGACGAGGCGCAGUUUUGUCUUUCGUUAUCGCAAUUCCAAUGCAACGACGACAUUGUAAGACAAAAUUCUCAUGACCAAUUUUAGUAACCAAGUGAUCUCUGUUACUUCGAGGACCAAGACAAUUUUUGUGGAUUGAAGUUGAGCAUCCUUGACAGUAAAUAAGUUGGCUUGGGCCCUUGUUCGAAUUUCUCUCAUUUCCAAAGCAAACAUCACAAAAUUUAUUAUGAAAACUUCGAAAUAAAUUUU
antisense: AAAAUUUAUUUCGAAGUUUUCAUAAUAAAUUUUGUGAUGUUUGCUUUGGAAAUGAGAGAAAUUCGAACAAGGGCCCAAGCCAACUUAUUUACUGUCAAGGAUGCUCAACUUCAAUCCACAAAAAUUGUCUUGGUCCUCGAAGUAACAGAGAUCACUUGGUUACUAAAAUUGGUCAUGAGAAUUUUGUCUUACAAUGUCGUCGUUGCAUUGGAAUUGCGAUAACGAAAGACAAAACUGCGCCUCGUCUAGAUGUGUGCAUAGUAUGUCGCGAAUUGGGCCUUUCAUGUUGGGCAUUCUCUACCAAAAUGAGUGCUCGACAAGAAGAAAAACUCCGGAAACAAAAUGAAGGAAUAGAUCCUAUAACGGAGAUUUCCAGUGAACUUAUCAACAAU

One data set deals with E. necator. Briefly: Leaf disc assay, dry inoculum (settling tower), decrease in disease severity / hyphal growth (Example 2). Conditions: decrease in disease severity (hyphal growth) relative to untreated control; time point 1 (untreated control hyphal growth ≥50%); value ± SE.
For B1, the “% decrease =/− SE TP1” value came out at 61 ± 2%.

Regarding B2, the “% decrease =/− SE TP1” value was 3 ± 8%. In the case of B3, the “% decrease =/− SE TP1” value is 15 ± 6%. On to B4, for which the “% decrease =/− SE TP1” value is reported as 18 ± 4%. Still for that read-out and setting: under B5 stands 7 ± 3%.

Staying with this data set, now noted: decrease in disease severity (hyphal growth) relative to untreated control; time point 2; value ± SE.
Consider B1, for which the “% decrease =/− SE TP2” value is given as 50 ± 7%. For B2, the “% decrease =/− SE TP2” value is 8 ± 8%.

B3: the “% decrease =/− SE TP2” value is reported as 9 ± 7%. Take B4: the “% decrease =/− SE TP2” value worked out at 3 ± 6%.

As to B6, the “% decrease =/− SE TP2” value is recorded as 27 ± 12%.

Take B7: the “% decrease =/− SE TP2” value was found to be 19 ± 7%.
